In the nanobody polyreactivity screen of Harvey et al. (2022):

Assay: yeast display, Sf9 membrane polyspecificity reagent, FACS + sequencing; frameworks hold sequencing errors
Outline: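 Nanobodies came from a synthetic yeast display library in Saccharomyces cerevisiae BJ5465, induced with galactose for 36–48 hours and stained for 1 hour at 4 °C with 10% biotinylated, detergent-solubilized Sf9 membrane reagent. Cells were enriched on streptavidin microbeads and then FACS-sorted, with low and high (top ~1%) gates set on anti-HA fluorescence for expression and streptavidin fluorescence for reagent binding. Each polyreactivity label reflects the gate a clone came from. Genes were amplified by colony PCR, sequenced by MiSeq 2 × 250 and filtered by CDR length.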

Row | Sequence | polyreactivity (PSR sort gate)
1 | QVQLVESGGGLVQAGCSLRLSSAASGSIFDDNALGRYRPAPGTDRELVAAISDNDGSTYYADSVKGRFTISRDNAKTTVYVQMNSLKADETAVYYCAATAQEWYPAVYNQYYYWGQGTQVTVSS | low polyreactivity
2 | QVQLVESGGGLVQAGGSLRLSCAASGRSFSGYAMGWYRQAPGKERDLVAAITSSGGRTYYADSVKGRFTISRDNAKNTVYVQMNSLKPEETAVYYSAAMRPGYRPQGLDYWGQGTQVTVSS | low polyreactivity
3 | QVQLVESGGGLVQAGGSLRLSCAASGRIFRRNAIGWYRQAPGKERELEAAISSGCGSKYYADSVKGRFTISRDNAKNTVYLQMNSLKPEDTAVYYCNTVFYYDDVSQAHDYWGQGTQVTVSS | high polyreactivity
4 | QVQLVESGGGLVQAGGSLRLSSAASGSILTINAMGWYRLAPGKERELVARITISSGSTYYADSVKGRFTISRDNAKNTVYLQLNSLKPEDTAVYYCAKLRYPYLFWDDSEYWGQGTQVTVSS | low polyreactivity
5 | QVQLVESGGGLVQAGGSLRLSCAASGFTFKYYAMGWYRQAPGKERELVARISWSGGSTYYADSVKGRFTISRDNAKNTFFLQMNSLKPEDTAVYYCNTDFGYGFDYWGQGTQVSVSS | high polyreactivity
6 | QVQLVESGGGLVQAGGSLRLSCAASGRTFWSNAMGWYRPAPGKERELVAAITWSGGSTSYADSVKGRFTISRDNAKNTVYLQMNSLKPEDTAVYYCAAGKGVELAKLDYWGQGTQVTVSS | low polyreactivity
7 | QVQLVESGVCLVQAGGSLRLSCAASGFTYYFYTMGWYRQAPGKERELVARITARGGSTYYADSVKGRFTISRDNAKNTVYLQMNSLKPEDTAVYYCAAVTYFGWYPYRMEYWGQGTQVTVSS | high polyreactivity
8 | QVQLVESGGGLVQAGGSLRLSCAASGLTFVNYAMGWYRQAPGKERELVATISKTGGSTYYADSVKGRFTISRDNAKNTVYLQMNSLKPEDTAVYYCAARRARRSGYYYWGQGTQVTVSS | high polyreactivity
9 | QVQLVESGGGLVQAGGSLRLSCAASGSIFWRNAMGWYRQAPGKERELVAAISRVGSTNYADSVKGRFTISRDNAKNTVYLQMNSLKPQDTAVYYCAVDGGEFSSYGYWGQGTQVTVSS | low polyreactivity
10 | QVQLQESGGGLVQAGGSLRLSCAASGSIIEELDMAWYRQAPGKEREFVAAIGTGSTTYYADSVKGRFTSSRDNAKNTVYLQMNSLKPEDTAVYYCAVTYSVYLPFRYWGQGTQVTVSS | high polyreactivity
11 | QVQHEESAGGLVQAGGSLRVSCAASGIIFYDYAMGWYRQAAGKERELVAAITSVGSTNYADSVKGRFTISRDYAKNTVYLQMISLKPDDTAVYYCDAEVYVPDYFQHIFDVEYEYWGQGTQVTVSS | low polyreactivity
12 | QVQLVESGGGLVQAGGSLRLSCAASGFTFAWYAMGWYRQAPGKERELVAAITSSGGSTYYADSVKGRFTISRDNAKNTVYLQMNSLKPEDTAVYYCAARPWIWARAGYYWGQGTQVTVSS | high polyreactivity
13 | QVQLVESGGGLVQAGGSLRLSCAASGFTFGSNAMGWYRQAPGKERELVAAISSTGSTYYADSVKGRFTISRDNAKNTVYLQMNSLKPEDTAVYYCNADSDTPRYDYWGQGTQVTVSS | low polyreactivity
14 | QVQLVESGGGLVQAGGSLRLSCAASGSTFDYYAMGWDRQAPGKERELVAAIRWSSGRTYYADSVKGRFTISRDNAKNTVYLQMHSLKPEDTAVYYCASAGHRGQGGPRYNYWGQGTQVTVSS | high polyreactivity
15 | QLQLVESGGGLVQAGGSLRLSCAPSGSIFYYSAMGWSRQAPGKESEFVAAITRNGGSTYYADSVKGRFTISRDNAKNTVYLQMNSLKPVATAVFYCNAVRVRVTSHRIRQLDYGYWGQGTQVTVSS | low polyreactivity
16 | QVQLVESGGGLVQAGGSLRLSCAASGFIFWLYAMGRYRQAPGKERELVAAISNGGSTNYADSVKGRFTISRDNAKNTVYLQMNSLKPEDTAVYYCAAKFPRRFYWYDYWGQGTQVTVSS | high polyreactivity
17 | QVQLVESGGGLVQAGGSLRLSCAASGLTFVEYAMAWYRQAPGKERELVAAITSTDGTNYADSVKGRFTISRDNAKNTVYIQMNSLKPADTAVYYCFTLAQDFYFWYYYWGQGTQVTVSS | high polyreactivity
18 | QVQLVESGGGLVQAGGSLRLSCAASGRTFYGYAMGWYRQAPGKERELVAAISRSGGRTYYADSVKGRFTISRDNAKNTVYLQMNSLKPEDTAVYYCAAYSVYASPDDYWGQGTQVTVSS | high polyreactivity
19 | QFQLVESGGGLVQAGGSLRLSCAASGSTFRRNTMGWYRQAPGKEREFVAAISRRGGSTYYADSVKGRFTISRDNAKNTVYLQMNRLKPEDTAVYYCAAPGLSRLYNVYYWPYDYWGQGTQVTVSS | high polyreactivity
20 | QVQHVHSGGGLVQAGGSLRLTCAASGSTFVGNAMVRYRQATGKERELVATISNSGGRTYYADSVKGRFTISRDNPKNTVYLQMNSLKAEDTAVYFCAADHPAFVPVYSFDYWGQGTQVNVSS | low polyreactivity
21 | QVQLVESGGGLVQAGGSLRLRCAASGYTLGPYAMGWYRPAPGKQRELVAAISWGGGRTYYADSVKGRFTISRDNAKNTVYLLMNSLKPEDTAVYYCAAKWSLVRDGPKYDYWGQGTQVTVSS | low polyreactivity

Row | Sequence | polyreactivity (PSR sort gate)
22 | QVQLVESGGGLVQAVGSLRLSCAASGRIFGYYDMGWYRQAPGKERELVAAINYDGGSTYYADSVKGRFTISRDNAKNTVYLQMNSLKPDDTAVYYCNKDGRVYLDHDYWGQGTQVTVSS | low polyreactivity
23 | QVQLVESGGGLVQAGGSLRLSCAASGRIFYSYGMGWYRQAPGKERELVATISIGGSTNYADSVKGRFTISRDNAKNTVYLQMNSLKPEDTAVYYCAARGGTLYSTRSYGYWGQGTQVTVSS | high polyreactivity
24 | QVQLVESGGGLVQAGGSLRLSCAASGQTFGGYAMGWYRQAPGKERELVAAITKRGGNTDYADSVKGRFTISRDKAKNTVYLQMTSLKPEDTAVYYCAASRAVGFGYWGQGTQVTVSS | high polyreactivity
25 | QVQLVESGGGLVQAGGSLRLSCAASGFTFYYYAMGWYRQAPGKERELVAGINSDGNTYYADSVKGRFTISRDNAKNTVYLQMNSLKPEDTAVYYCAARKLWPKNFVRHDYWGQGTQVTVSS | low polyreactivity
26 | QVQLVESGGGLVQAGGSLRLTCAASGFIFGYNAMGWYRQAPGKERELVAAISSSGGSTYYADSVKGRFTISRDNAKNTVSLQMNSLKPEDTAVYYCAARPVALRKYDYWGQGTQVTVSS | low polyreactivity
27 | QVQLVESGGGLVQAGGSLRLSCAASGSTFRFNTMGWYRQAPGKERGLVACIAAGTTTNYADSVKGRFTISRDNAKNTVYLQMNSLKPEDAAVYYCAALNAFNTGHWYWGQGTQVTVSS | low polyreactivity
28 | QVQLVESGGGLVQAGGSLRLSCAASGSTLRYYAMGSYRQAPGKERELVAAISTGGSTYYADSVKGRFTISRDNAKNTVYLQMNSLKPEDTAVYYSAADGYAHVWDYAYDYWGQGTQVTVSS | low polyreactivity
29 | QVQLVESGGGLVQAGGSLRLSCAASGSTFWFYAMGWYRQAPGKERELDAAISNGDSTNYADSVKGRFTISRDNAKNTVYLQMNSLKPEDTAVYYCAADQVYGIGYEYWGQGTQVTVSS | low polyreactivity
30 | QVQLVESGGGLVQAGGSLRLSCAASGITFYLYDMGWYRQAPGKERELVASITSDGSTDYADSVKGRFTISRDNAKNTVYLQMNSLKPEDTAVYYCNARVTYAWYRFGRSGDDSWGQGTQVTVSS | low polyreactivity
31 | QVHLVESGGGLVQAGGSLRLSCAASGRIFRRYAMGWSRQAPGKERELVAAISSGGSTYYADSVKGRFTISRDNAKNTVYLQMNSLKPEDTAVYYCNAKVGAYLNYGYWGQGTQVTVSS | low polyreactivity
32 | QVQLVESGGGLVQAGGSLRLSCAASGLIFYRNAMGWYRQAPGKERELVAAISVSGGSTYYADSVKGRFTISRDNAKNTVYLQMNSLKPEDTAVYYCAAKTWRSRGLEMDYWGQGTQVTVSS | high polyreactivity
33 | QVQLVESGGGLVQAGGSLRLSCAASGLTFDAYAMGWYRQAPGKERELDAAISSGGNTYYADSVKGRFTISRDNAKNTVYLQMNSLKPEDTAVYYCNAVGYYKYFFLAYEYDYWGQGTQVTVSS | low polyreactivity
34 | QVQLVESGGGLVQAGGSLRLSCAASGRIFGGYEMGWYRQAPGKERELVAAITSDSSTTYADSVKGRFTISRDNAKNTVYLQMNSLKPEDTAVYYCAVQVNGPVFYRPYRDYDYWGQGTQVTVSS | low polyreactivity
35 | QLQLVESGGGLVQAGGSLRLSCAASGLIFIYYAMGWYRQAPGKERELVASITNSGGSTYYADSVKGRFTISRDNAKNTVYLQMNSLKPEDTALYYCAADYKTIVQRYGYYYWGQGTQVTVSS | low polyreactivity
36 | QVQLVESGGGLVQAGGSLRLSSASSGSIFTDNGMGCYRHAPGKESELVAAISWRGGTYYADSVKGRFTISRDNAKNTVYLQMNSLKPEDSAVYYSAADVLRISTRLFRGPGFDSWGQGTQVTVSS | low polyreactivity
37 | QVQLVESGGGLVQAGGSLRLSCAASGRTFVRNAMGWYRQAPGKVRELVAAISSIGDSTYYADSVKGRFTISRDNAKNTVYLQMNSLKPEDTAVYYSNARGYVYYRMGYWGQGTQETVSS | low polyreactivity
38 | QVQLVESGGGLVQAGGSLRLSCAASGRIFNYYAMGWYRQAPGKERELVAGISGSGTSTYYADSVKGRFTISRDNAKNTVYLQMNSLKPEDTAVYYCAADVFRDDVWLDYWGQGTQVTVSS | low polyreactivity
39 | QVQLVESGGGLVQAGGSLRLSCAASGRIFYGNTLGWYRQAPGKERELVAAISSGGSTNYADSVKGRFTISRDNAKNTVYLQMNSLKPEDTAVYYCAAAGRPGGYVQRDSWGQGTQVTVSS | high polyreactivity
40 | QVQLVESGGGLVQAGGSLRLSCAASGSTFLKYAMVWYRQAPGKERELVAAITSDGTTYADSVKGRFTISRDNAKNTVYLQMNSLKPEDTAVYYCAKDYRHPTFDYWGQGTQVTVSS | low polyreactivity
41 | QVQLVESGGGLVQAGGSLRLSCAASGRTSRYAMGWSRQAPGKERELVAAITSSGGRTYYADSVKGRFTISRDNAKNTVYLQMNSLKPEDTAVYYCAAGYLLWRTWDYAAGHNYWGQGTQVTVSS | high polyreactivity
